In publication PMC7495481, “Sequence specificity analysis of the SETD2 protein lysine methyltransferase and discovery of a SETD2 super-substrate” (Communications Biology, 2020):
Ends that are not written are not given here.

Columns and labels:
SETD2 [1] = molecular target: T1, SETD2 (Homo sapiens, UniProt Q9BYW2); experiment: Protein methylation assay (non-histone proteins, GST fusions, nucleosomes, H3.1); format: biochemical
T1 construct: SETD2 catalytic SET domain (amino acids 1347–1711, UniProt No: Q9BYW2); made in house; host or cells: E. coli
T1 sequence (Q9BYW2 1347-1711): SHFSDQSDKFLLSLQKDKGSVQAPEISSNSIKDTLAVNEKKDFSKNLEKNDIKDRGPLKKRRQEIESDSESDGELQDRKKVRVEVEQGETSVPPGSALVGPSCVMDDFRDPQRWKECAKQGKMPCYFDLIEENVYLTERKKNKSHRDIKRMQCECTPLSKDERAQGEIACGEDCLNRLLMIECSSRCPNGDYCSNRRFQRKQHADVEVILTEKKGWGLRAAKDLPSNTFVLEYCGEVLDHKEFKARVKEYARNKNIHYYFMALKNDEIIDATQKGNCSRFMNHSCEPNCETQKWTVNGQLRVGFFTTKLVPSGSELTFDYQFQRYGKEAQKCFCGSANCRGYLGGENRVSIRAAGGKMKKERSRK
Text: The 9 new putative non-histone substrates of SETD2 were cloned into a pGEX-6p2 bacterial expression vector for protein expression. Six of them could be expressed and purified through glutathione sepharose beads (Table 1). For comparison, the super-substrate sequence was cloned with a […] GST-tag (ssK36-GST) to mimic the natural setting of the H3K36 site in the N-terminal tail of histone 3. Similar amounts of the purified non-histone substrate proteins and the ssK36-GST protein were loaded on an SDS-gel and stained with Coomassie BB (Supplementary Fig. 6a). Afterward protein methylation reactions were conducted using radioactively labeled AdoMet and the radioactive signal of the methyl group transfer was detected by autoradiography (Supplementary Fig. 6b). […] Next, we aimed to confirm the FBN1 methylation at the predicated target lysine K666. For this, a K666R mutation was introduced and the wildtype and mutant FBN1 proteins were purified by affinity chromatography. […]
Protein methylation reactions were performed in 40 µl methylation buffer containing 0.76 µM radioactive labeled AdoMet (PerkinElmer), approximately 20 µg of substrate protein and 6 µM SETD2 enzyme (if not otherwise indicated) for 3 h at 25 °C. […] The radioactive methylation signal was detected by a hyperfilm^TM high performance autoradiography film (GE Healthcare) at −80 °C in the dark. […]

SETD2 [2] = molecular target: T1, SETD2; experiment: Peptide SPOT array target lysine methylation of selected non-histone peptides (Fig. 3b); format: biochemical; details: Exp1–Exp3, 3–6 µM SETD2, 0.76 µM AdoMet, 60 min, pH 9
Text: However, we could identify 166 possible targets, which contain partial matches to the substrate specificity profile. The possible methylation of these 166 putative substrates was investigated at the peptide level. For this, fifteen amino acid long peptides containing the sequence of the non-histone targets surrounding the predicted target lysine were synthesized on a membrane. The H3K36 (29–43) peptide (spots A1, I9), the super-substrate peptide (spots A3, I11) and the corresponding lysine to alanine mutation peptides (spot A2, I10, and A4, I12) were included as positive and negative controls (Fig. 3a, Supplementary Fig. 4 and Supplementary Table 2). The methylation reactions and the detection of the methylation signals were performed in duplicates as described above. We observed that all of the investigated peptides were more weakly methylated than the super-substrate peptide. […] In the next step, 20 of the peptides were selected for further investigation based on the methylation intensity and the known functions of the proteins to confirm the methylation at the predicted target site. The peptides were synthesized on another membrane, now including the target lysine to alanine mutation control peptides in each case. The methylation reactions and the detection of the signal were conducted as described above (Fig. 3b, Supplementary Fig. 5 and Supplementary Table 3).
Fig. 3 Identification of non-histone substrates of SETD2. a Candidate non-histone peptide substrates were identified in the human proteome based on the SETD2 super-substrate specificity profile. The peptides were synthesized on a peptide SPOT array (Supplementary Table 2) and methylated by SETD2. As controls, the H3K36, H3K36A, ssK36 and ssK36A peptides were included on spots A1–A4 and I9–I12. The autoradiography image is an example of the obtained results. […] The quantification of the data of two experiments is shown in Supplementary Fig. 4. b Analysis of target lysine methylation of selected non-histone substrate peptides. Peptide SPOT arrays were synthesized containing the non-histone peptide substrates identified in panel A in addition to the lysine to alanine mutations presented on the array as every second spot (Supplementary Table 3). As controls, the H3K36, H3K36A, ssK36, and ssK36A mutant peptides were included on spot A1–A4 and C5–C8. The autoradiography image is an example of the obtained results. The quantification of the data of three experiments is shown in Supplementary Fig. 5. Peptides selected for furhter analysis are highlighted by blue circles. c Protein methylation of FBN1 and confirmation of the target lysine methylation. Both wild type (WT) and mutant (K666R) FBN1 were purified and equal amounts were methylated by SETD2 (2 µM). […] The size of FBN1 is indicated by an asterisk.
(§1) Peptide arrays containing fifteen amino acid long peptides were synthesized using the SPOT synthesis method[48] with an Autospot peptide array synthesizer (Intavis AG, Köln, Germany). After synthesis, the obtained membranes were pre-incubated in methylation buffer (20 mM Tris/HCl pH 9, 0.01% Triton X-100, 10 mM DTT, 1.5 mM MgCl2) for 5 min on a shaker. Thereafter, the membranes were incubated in methylation buffer supplemented with 0.76 µM radioactively labeled AdoMet (PerkinElmer) and 3–6 µM SETD2 enzyme for 60 min on a shaker. After methylation, the membranes were washed 5 times for 5 min in wash buffer (100 mM NH4HCO3, 1% SDS) and incubated in amplify NAMP100V (GE Healthcare) for 5 min. This was followed by the exposure of the membranes to a hyperfilm^TM high performance autoradiography (GE Healthcare) film at −80 °C in the dark. The films were developed with an Optimax Typ TR machine after different exposue times. For quantification the signal intensities were measured with the Phoretix^TM software and analyzed with Microsoft Excel.

SETD2 [3] = molecular target: T1, SETD2; details: H3K36 peptide, previously determined under the same conditions; ref [30]; cited from earlier work
SETD2 [4] = molecular target: T1, SETD2; experiment: Western Blot detection of GST fusion methylation by SETD2 with H3K36me3 antibody; format: biochemical; details: incubated with SETD2 and unlabeled AdoMet
Description: Supplementary Fig. 9: Control experiments related to Fig. 6c. a Validation of the detection of ssK36-GST methylation by the α-H3K36me3 antibody. The purified ssK36-GST and H3K36-GST substrates were incubated with SETD2 and unlabeled AdoMet. Afterwards, the proteins were separated by SDS-PAGE and blotted. Western Blot […]
of H3K36-GST methylation by SETD2 observed in Fig. 6a and 6b. Equal loading of the GST-tagged proteins is shown in the Coomassie BB stain of a parallel gel, equal loading of SETD2 is shown in the Ponceau S stain of the Western Blot membrane. b YFP-tagged ssK36 and H3K36 substrates were transfected into HEK293 cells together with DsRed-tagged SETD2 or DsRed empty vector (EV). The expression levels of DsRed-SETD2 and DsRed from EV were determined […]
Example of the FACS primary data for DsRed expression. d Average fraction of DsRed positive cells in three independent experiments normalized to DsRed-SETD2 + YFP-ssK36. EV, empty […]
(1 picture or pasted object on this page, not shown here)

SETD2 [5] = molecular target: T1, SETD2; experiment: Peptide SPOT array methylation of reported SETD2 substrates; format: biochemical; details: SPOT array on cellulose membrane; 0.76 µM radioactive AdoMet, 3–6 µM SETD2, 60 min, pH 9; autoradiography
Description: Next, the SETD2 activity was tested on peptide SPOT arrays containing fifteen amino acid long peptides immobilized on a cellulose membrane. As reported SETD2 substrates, the H3K36 (29–43), α -tubulin (33–47) and STAT1 (518–532) peptides (with the target lysine centered in each case) were included, and peptides with the corresponding target lysine mutated to alanine were used as negative controls. The peptide array was incubated in methylation buffer supplemented with SETD2 and radioactively labeled AdoMet. […] Methylation of the previously reported non-histone substrates α -tubulin and STAT1 was not detectable at the peptide level and, therefore, they were excluded from further investigation.
as §1
Supplementary Fig. 1: SETD2 protein and catalytic activity. a Purified His6-tagged SETD2 SET domain (1347-1711) was separated on an SDS-gel and […]
stained with Coomassie BB. […]
tubulin (33-47), STAT1 (518-532) and their corresponding target lysine to alanine mutant peptides were synthesized on a cellulose membrane. The membrane was incubated in methylation buffer supplemented with radioactively labeled AdoMet and SETD2. The signal of the transferred radioactive methyl groups was visualized by autoradiography.

SETD2 [6] = molecular target: T1, SETD2; details: ref [18],[19]; cited from earlier work
Text: SETD2 is a PKMT initially in 2005 identified to methylate H3K36[8]. So far, lysine 36 in H3 was still the best substrate known for this enzyme at the peptide level. At the protein level, H3 methylation by SETD2 is weak, but it is strongly stimulated in the context of a nucleosome as shown here by us and previously by others. […] In thi ...

With “STCYGGYKRGQCIKP [FBN1, Fibrillin-1 peptide, target lysine 666]” the “comparison of protein methylation efficiency” value (SETD2 [1]; based on own results and literature data, ref [18],[19]) was “more efficiently methylated than H3, α -tubulin and STAT1” and the “Relative methylation signal, Average” value (SETD2 [2]) was 0.6365.

For “H3K36 peptide: H3K36 (27–43) peptide purchased from Intavis AG (KSAPATGGVKKPHRYRP; UniProt P68431 28-44, looked up, fragment)”, the Km (SETD2 [3]) is listed as 65 µM.

With “H3K36-GST: H3K36 (29–43) sequence cloned with C-terminal GST-tag (APATGGVKKPHRYRP; also: C-terminal GST tag fusion; UniProt P68431 30-44, looked up, fragment)” the “methylation of GST fusion proteins (in words)” value (SETD2 [1]; equal amounts, 6 µM SETD2, 0.76 µM AdoMet, 3 h, 25 °C, autoradiography) was “no signal was detected” and the “H3K36me3 antibody Western Blot signal” value (SETD2 [4]) was “very weak signal”.

B1: STAT1: known non-histone substrate of SETD2, methylated at K525 (protein, UniProt P42224 2-750, looked up)
Signal transducer and …: SQWYELQQLDSKFLEQVHQLYDDSFPMEIRQYLAQWLEKQDWEHAANDVSFATIRFHDLLSQLDDQYSRFSLENNFLLQHNIRKSKRNLQDNFQEDPIQMSMIIYSCLKEERKILENAQRFNQAQSGNIQSTVMLDKQKELDSKVRNVKDKVMCIEHEIKSLEDLQDEYDFKCKTLQNREHETNGVAKSDQKQEQLLLKKMYLMLDNKRKEVVHKIIELLNVTELTQNALINDELVEWKRRQQSACIGGPPNACLDQLQNWFTIVAESLQQVRQQLKKLEELEQKYTYEHDPITKNKQVLWDRTFSLFQQLIQSSFVVERQPCMPTHPQRPLVLKTGVQFTVKLRLLVKLQELNYNLKVKVLFDKDVNERNTVKGFRKFNILGTHTKVMNMEESTNGSLAAEFRHLQLKEQKNAGTRTNEGPLIVTEELHSLSFETQLCQPGLVIDLETTSLPVVVISNVSQLPSGWASILWYNMLVAEPRNLSFFLTPPCARWAQLSEVLSWQFSSVTKRGLNVDQLNMLGEKLLGPNASPDGLIPWTRFCKENINDKNFPFWLWIESILELIKKHLLPLWNDGCIMGFISKERERALLKDQQPGTFLLRFSESSREGAITFTWVERSQNGGEPDFHAVEPYTKKELSAVTFPDIIRNYKVMAAENIPENPLKYLYPNIDKDHAFGKYYSRPKEAPEPMELDGPKGTGYIKTELISVSEVHPSRLQTTDNLLPMSPEEFDEVSRIVGSVEFDSMMNTV
For B1, the “peptide spot methylation signal” value (SETD2 [5]) is given as “did not show a detectable peptide methylation signal” and the “reported methylation by SETD2 compared with H3K36” value (SETD2 [6]) is given as “weaker than H3K36”.
